Laboratory results as given in patent US20150087046A1 (SPIBER TECHNOLOGIES, published 2015).

B1: His6-scFv1-NTCT fusion protein (scFv)
chain: MGSSGHHHHHHMEVQLLESGGGLVQPGGSLRLSCAASGFTFSSYEMNWVRQAPGKGLEWVSGISGSGGFTYYADSVKGRFTISRDNSKNTLYLQMNSLRAEDTAMYYCAREGYQDAFDIWGQGTLVTVSSGGGGSGGGGSGGGGSQSVLTQPPSASGTPGQRVTISCTGSSSNIGAGYDVHWYQQLPGTAPKLLIYSNNQRPSGVPDRFSGSKSGTSASLAISGLRSEDEADYYCAAWDDSLSGPPWVFGGGTKLTVLGEQKLISEEDLSGSAAAGNSSHTTPWTNPGLAENFMNSFMQGLSSMPGFTASQLDDMSTIAQSMVQSIQSLAAQGRTSPNKLQALNMAFASSMAEIAASEEGGGSLSTKTSSIASAMSNAFLQTTGVVNQPFINEITQLVSMFAQAGMNDVSAGNSGIQGYGQSSASASAAASAASTVANSVSRLSSPSAVSRVSSAVSSLVSNGQVNMAALPNIISNISSSVSASAPGASGCEVIVQALLEVITALVQIVSSSSVGYINPSAVNQITNVVANAMAQVMG
B2: CT (control) film (other)
chain: SRLSSPSAVSRVSSAVSSLVSNGQVNMAALPNIISNISSSVSASAPGASGCEVIVQALLEVITALVQIVSSSSVGYINPSAVNQITNVVANAMAQVMG
B3: His6-ABD-CT fusion protein (other)
chain: MGHHHHHHMLAEAKVLANRELDKYGVSDYYKNLINNAKTVEGVKALIDEILAALPGNSGIQGYGQSSASASAAASAASTVANSVSRLSSPSAVSRVSSAVSSLVSNGQVNMAALPNIISNISSSVSASAPGASGCEVIVQALLEVITALVQIVSSSSVGYINPSAVNQITNVVANAMAQVMG
notes: Tested as a solid film (polymer of the fusion protein) cast in 96-well plates from 15 ul of 1 mg/ml protein
B4: His6-ABD-NTCT fusion protein (other)
chain: MGSSGHHHHHHMLAEAKVLANRELDKYGVSDYYKNLINNAKTVEGVKALIDEILAALPGNSSHTTPWTNPGLAENFMNSFMQGLSSMPGFTASQLDDMSTIAQSMVQSIQSLAAQGRTSPNKLQALNMAFASSMAEIAASEEGGGSLSTKTSSIASAMSNAFLQTTGVVNQPFINEITQLVSMFAQAGMNDVSAGNSGIQGYGQSSASASAAASAASTVANSVSRLSSPSAVSRVSSAVSSLVSNGQVNMAALPNIISNISSSVSASAPGASGCEVIVQALLEVITALVQIVSSSSVGYINPSAVNQITNVVANAMAQVMG
notes: as for B3
B5: NTCT (control) film (other)
chain: HHHHHHMSHTTPWTNPGLAENFMNSFMQGLSSMPGFTASQLDDMSTIAQSMVQSIQSLAAQGRTSPNKLQALNMAFASSMAEIAASEEGGGSLSTKTSSIASAMSNAFLQTTGVVNQPFINEITQLVSMFAQAGMNDVSASASAGASAAASAGAGSGNSGIQGYGQSSASASAAASAASTVANSVSRLSSPSAVSRVSSAVSSLVSNGQVNMAALPNIISNISSSVSASAPGASGCEVIVQALLEVITALVQIVSSSSVGYINPSAVNQITNVVANAMAQVMG
notes: also called His6NT-CT; His6NTCT

What was measured:
[1] = biological target: biotinylated antigen sample (antigen recognised by scFv1, specific for Systemic Lupus Erythematosus); test: microarray of spotted films, 10 nM biotinylated antigen, Alexa-647-streptavidin, spot intensity; reference: pure scFv1 control
[2] = biological target: T1, albumin from human blood plasma (human, UniProt P02768 25-609); test: film incubated with plasma, acid elution, non-reducing SDS-PAGE
T1 construct: Not purified: the albumin source was diluted human blood plasma
Description: (§1) To evaluate the ability of ABD-NTCT films to bind albumin, human blood plasma was used as albumin source. Four films of ABD-NTCT and ABD-CT were pre-wetted with 150 μl of 1×PBS followed by incubation of 100 μl of human blood plasma (1:5 dilution) for 30 min at room temperature. After washing three times with 200 μl 1×PBS, bound albumin was eluted in 50 μl by lowering the pH to approximately 2.7 with elution buffer (i.e. 0.5 M acetic acid, 1 M urea, 100 mM NaCl), after which the eluted fractions were analyzed by non-reducing SDS-PAGE. Films of NTCT and CT were used as control material, and were treated in the same way.

[3] = biological target: T1, albumin from human blood plasma; test: film incubated with human blood plasma (1:5), acid elution, non-reducing SDS-PAGE
Description: Films of His₆-ABD-CT were casted in 96-well plates (Tissue culture plate, Suspension cells, 83.1835.500, Sarstedt) from 15 μl of 1 mg/ml soluble fusion protein per film. The films were then allowed to solidify over night (20° C., 35% relative humidity). The same procedure was followed for casting films of His₆-ABD-NTCT from 15 μl of 1 mg/ml protein solution.
as §1

T1 sequence (P02768 25-609 limits assumed): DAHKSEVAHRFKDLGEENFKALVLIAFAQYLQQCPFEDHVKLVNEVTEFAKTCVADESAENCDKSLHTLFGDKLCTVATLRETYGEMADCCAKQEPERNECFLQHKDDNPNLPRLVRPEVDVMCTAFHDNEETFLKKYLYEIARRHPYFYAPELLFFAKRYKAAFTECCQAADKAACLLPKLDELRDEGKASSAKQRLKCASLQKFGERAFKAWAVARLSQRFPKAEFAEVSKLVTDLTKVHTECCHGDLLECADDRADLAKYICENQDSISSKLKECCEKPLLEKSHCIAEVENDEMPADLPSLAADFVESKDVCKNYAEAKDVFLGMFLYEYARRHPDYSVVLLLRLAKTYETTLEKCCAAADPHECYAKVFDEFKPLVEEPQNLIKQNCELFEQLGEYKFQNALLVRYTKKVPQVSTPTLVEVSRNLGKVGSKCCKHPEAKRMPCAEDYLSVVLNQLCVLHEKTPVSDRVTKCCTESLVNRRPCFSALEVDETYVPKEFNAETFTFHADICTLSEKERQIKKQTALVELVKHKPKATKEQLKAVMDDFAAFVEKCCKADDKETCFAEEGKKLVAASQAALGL

Row | Binder | binding result [2] | binding result [3] | also measured
1 | B1 |  |  | fold increase of antigen recognition against the scFv1 control [1]: 25 times
2 | B2 | no binding (tested: human blood plasma (1:5 dilution)) |  | 
3 | B3 |  | binds | 
4 | B4 |  | binds | 
5 | B5 | no binding (tested: human blood plasma (1:5 dilution)) |  | 
